Experimental findings from paper PMC3139429 are described below.

Data set [1] has as its target MyrMA (myristoylated matrix) (HIV-1, UniProt P12493 2-132). The data set is described as follows: fluorescence anisotropy.
In data set [2] the target is MA (unmyristoylated matrix) (HIV-1, UniProt P12493 2-132). The data set is described as follows: fluorescence anisotropy.

Usually Kd stands for the constant that tells how readily two partners part at equilibrium. Low readings indicate tighter binding, high ones weaker binding. Turning to GGACAGGAAUUAAUAGUAGCUGUCC (structured_RNA) [FITC-Sel25], the values for the Kd in data set [1] and in data set [2] were 813 ± 74 nM and 1030 ± 80 nM, respectively.
